These results are taken from the supplement of paper PMC9170038.

For the data set, the system named is MS2 coat protein. In words: apparent KD of MS2 coat protein; higher = weaker reporter binding. The conditions noted are these: Eterna round: R107. The method, boiled down:
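The buffer was 100 mM Tris-HCl pH 7.5 with 80 mM KCl and 4 mM MgCl2, used without or with constant ligand. In it, RNA switches transcribed on-chip from Illumina sequencing clusters were titrated with SNAP-549-labelled MS2 coat protein in twofold steps from 0.7 or 1.5 nM to 3 µM. Apparent KD for each design is the median of its normalised cluster binding-curve fits.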

Setting [1] is: input ligand: theophylline 20 uM.
Setting [2] is: input ligand: tryptophan 2.4 mM.
The mark [3] stands for this setting: input ligand: theophylline 2 mM.

Regarding “GAUGAACUAUUUGAUACCAGACUACAUGAGGAUCACCCAUGUGUGUUUAUACUUCAGUCAGUCCCUUGGCAGCAAAUAGUUUAUC [XTheo B #3]”, the “apparent KD of MS2 coat protein” value runs as follows: (input ligand: arginine 13.2 mM) 94.8 nM; under setting [1], 183 nM; under setting [2], 158 nM.
The corresponding values for “GAUGAUAUUGCAGAUACCAGACACAUGAGGAUCACCCAUGUCGUUGGGUAGCUGGGUCGUGUCCCUUGGCAGCUGCGAUAUCAUC [#05 Exclusion-TheophyllineB]” are 19.8 nM, 48.2 nM and 24.5 nM.
For the sequence “GAUGAUAUUGCAGAUACCAGACACAUGAGGAUCACCCAUGUCUCUGAGAUGAAGGAUCGUGUCCCUUGGCAGCUGCGAUAUCAUC [Bulgaria]”, the “apparent KD of MS2 coat protein” value was found to be 25.1 nM (input ligand: arginine 13.2 mM), 72.9 nM under setting [1] and 30.3 nM under setting [2].
Regarding “GAUUACAUGAGGAUCACCCAUGUAACUGAAGGAGCGGUAAUAAAGCCAGGUAGGUCGCAGAACGACAUGUGGUUCAUCCAUGUAA [#15 Exclusion - Arginine A]”, the “apparent KD of MS2 coat protein” value turned out to be 14.3 nM (input ligand: arginine 13.2 mM); 39.1 nM (input ligand: none); 46.9 nM under setting [1]; 35.5 nM under setting [3]; 30.4 nM under setting [2].
For “GAUUCGCAGUCGGCCGCCACUAACAUGAGCUGCUAGUUAUUAUCACAUGAGGAUCACCCAUGUCUUAGGACCGGGACAACCUGUU [theeternabot_sameState_MS2_Trp_B_26]”, the “apparent KD of MS2 coat protein” value by setting is: (input ligand: arginine 13.2 mM) 48.3 nM; under setting [1], 79.1 nM; under setting [3], 85.3 nM.
With “GCACGACAUGAGGAUCACCCAUGUGCAGAUACCAGUAGGAUAUCCUACCCUUGGCAGCUGAGUAGAUCUGGAGGACUAUAGGUAA [Same State Theophylline A GF9]”, the “apparent KD of MS2 coat protein” value reads like this: (input ligand: arginine 13.2 mM) 15.5 nM; (input ligand: none) 17.9 nM; under setting [1], 23 nM; under setting [3], 21.2 nM; under setting [2], 18.3 nM.
Turning to “GCACUACAUGAGGAUCACCCAUGUGCAGAUACCAGAGGUGUAUGCCUCCCUUGGCAGCUGAGUAGCUCUGGAGGCCUAUUGGUUU [Same State Theophylline A GF15]”, the “apparent KD of MS2 coat protein” value reads like this: (input ligand: arginine 13.2 mM) 15.7 nM; under setting [1], 20 nM; under setting [2], 16.8 nM.
Turning to “GCACUACAUGAGGAUCACCCAUGUGCAGAUACCAGAGGUGUAUGCCUCCCUUGGCAGCUGCGUCGCUCUGGAAGCCUAUUGGUUU [Same State Theophylline A GF16]”, the “apparent KD of MS2 coat protein” value runs as follows: (input ligand: arginine 13.2 mM) 15.8 nM; under setting [1], 25.5 nM; under setting [2], 18.4 nM.
Take “GCAUCCUAGUCGGCCGCCACUGACAUGAGGAUCACCCAUGUACAUGAGGAUCACCCAUGUUGUAACAGGACCGGGACUAGGAUGC [SS Tryp B #18]”: the “apparent KD of MS2 coat protein” value (input ligand: arginine 13.2 mM) was determined as 69.3 nM, the “apparent KD of MS2 coat protein” value under setting [1] came out at 112 nM and the “apparent KD of MS2 coat protein” value under setting [3] was 141 nM.
“GCAUCCUAGUCGGCCGCCACUGACAUGAGGAUCACCCAUGUACAUGAGGAUCACCCAUGUUGUAGCAGGACCGGGACUAGGAUGC [SS Tryp B #17]”: the “apparent KD of MS2 coat protein” value came out at 176 nM (input ligand: arginine 13.2 mM); 259 nM (input ligand: none); 277 nM under setting [1]; 295 nM under setting [3]; 75.6 nM under setting [2].
For the sequence “GCAUCCUAGUCGGCCGCCACUGCAUGUAGUUUUGCUACAUGGAAACAUGAGGAUCACCCAUGUAGCAGGACCGGGACUAGGAUGC [(Trp1)-(TM)''-(TM)'-(Ms2)-(Trp2)_Design7]”, the “apparent KD of MS2 coat protein” value runs as follows: (input ligand: arginine 13.2 mM) 30.7 nM; under setting [1], 36.2 nM; under setting [3], 36 nM.
In the same order, the values of “GCAUCCUAGUCGGCCGCCACUGGUAUGAACACCUUCACCCGUGUGCACAUGAGGAUCACCCAUGUUAGGACCGGGACUAGGAUGC [SSTryp B #20]” are 10 nM, 11.2 nM and 9.67 nM.
On to “GCCAAAAUACCCGAUACCAGUAUUAAUAGCACAACCUCACACAUGAGGAUCACCCAUGUAUACCCUUGGCAGCGGCCUAACAUAA [theeternabot_exclusion_MS2_Theo_B_49]”, for which the “apparent KD of MS2 coat protein” value by setting is: (input ligand: arginine 13.2 mM) 30.5 nM; under setting [1], 55.3 nM; under setting [2], 36.9 nM.
For the sequence “GCGGUGGGUCAAAAGUAAUAGAAUUCUGAAGGAGCGUGAUGAAACACAGGUAGGUCGCAGGAACAUGAGGAUCACCCAUGUACGG [Same State Arginine A GF21]”, the “apparent KD of MS2 coat protein” value reads like this: (input ligand: arginine 13.2 mM) 34.4 nM; (input ligand: none) 34 nM; under setting [1], 49 nM; under setting [3], 37.5 nM; under setting [2], 35.7 nM.
In the same order, the values of “GCUAGCCGAAAGGCUAGCAGCGCUACAGAAGGAGCGUGCGAAAGCACAGGUAGGUCGCUGAACAUGAGCAUCAGCCAUGUUGCGC [SSAA - Alter Amptam #2 V2+NP]” are 14.8 nM, 12.2 nM, 18.5 nM, 18.6 nM and 11.7 nM.
Consider “GCUAGGUCAUCGGCCGCCACUAUUAGUGGUUCGAACAUGAGGAUCACCCAUGUGCCACAUGCGCAUAGGACCGGGAUGACCUAGC [SSTB NP+V+V2 #8]”, for which the “apparent KD of MS2 coat protein” value turned out to be 11.8 nM (input ligand: arginine 13.2 mM), 18.2 nM under setting [1] and 13.7 nM under setting [3].
For “GCUAGGUCUACGGCCGCCACUAGACGUGGGUAAAACAUGAGGAUCACCCAUGUGCUACGGGCGAAUAGGACCGGGUAGACCUAGC [SSTB NP+V+V2 #15 +-Same Structure]”, the “apparent KD of MS2 coat protein” value by setting is: (input ligand: arginine 13.2 mM) 60.1 nM; (input ligand: none) 368 nM; under setting [1], 529 nM; under setting [3], 711 nM; under setting [2], 85.4 nM.
In the same order, the values of “GCUAGUGGCAGAAGGAGCGACAUUAAAAGUGGUCGAUACAUGAGGAUCACCCAUGUACUAUGUCAGGUAGGUCGCUGCCACUAGC [EAB NP+V+V2 #4 +-Same Structure]” are 27.8 nM, 30.7 nM, 39.1 nM, 36.6 nM and 30.7 nM.
